Experimental data from the RNAGym collection of RNA variant scans (doi:10.1073/pnas.2313332121).
This sample holds only a part of the variants without activity.

B1: TPR 5TU (parent)
chain: GGAUCUUCUCGAUCUAACAAAAAAGACAAAUCUGCCACAAAGCUUGAGAGCAUCUUCGGAUGCAGAGGCGGCAGCCUUCGGUGGCGCGAUAGCGCCAACGUUCUCAACUAUGACACGCAAAACGCGUGCUCCGUUGAAUGGAGUUUAUCAUG

Variants of: B1
Test: polymerase ribozyme fitness, log enrichment relative to wild type (log ratio); higher = more active; in vitro selection for triplet polymerase activity
How it was run: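 Frozen incubation at −7 °C formed the core of a single, triplicate in vitro selection round applied to PCR-built, transcribed mutant libraries of each subunit of a heterodimeric triplet polymerase ribozyme. Extended constructs were gel-excised, captured with streptavidin beads and amplified by RT-PCR, and input and output libraries were Illumina-sequenced with a filter of ≥10 input reads and ≥1 read per output. Fitness is the logarithm of genotype enrichment relative to wild-type enrichment, with inverse-variance-weighted replicate averaging, and the logarithm is base 2.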

Variant	polymerase ribozyme fitness (log ratio)
A19U C93A	-2.7
A20C G50C C54U G58C G62A C103G C125U A142C	≤ -4.2
A20C G88A	-3.56
A20G U78G C93U A110U U135G A137G	≤ -4.2
A20G C87U	-1.06
A20G A23C U53A G92A C93A C95U G141A	≤ -4.2
A20U A23U A37U C51U C69A C105U	≤ -4.2
A20U A26U G83C	≤ -4.2
A20C A41U G50A U90A C93U	≤ -4.2
A20C G86C C87U G88A C95G	≤ -4.2
A20G A26G G65A C69A C105A	≤ -4.2
A20U A30U A39G C75A	≤ -4.2
A20U A24U G58C C96G A119G	≤ -4.2
A20G C93U C99A G124U	-2.78
A20U A49G	-1.2
A20U A41C	-2.09
A20U A41U	-2.17
A19U A142C	-1.11
A19U C93U U148A	-3.95
A19U G80U	-0.442
A19U G62A A73U A110G A121U	≤ -4.2

Variant	polymerase ribozyme fitness (log ratio)
A20C C27G C96G A115U	≤ -4.2
A19U A52C U55A A60C C76U G83A C85U C129G A150G	≤ -4.2
A20G G67U	-2.82
A20C U55A	-0.798
A19U A52G U56G G80C G84U A98C A110U	≤ -4.2
A19U C79U G83A G88C	≤ -4.2
A20U A41U G59A G67A G86C	≤ -4.2
A20C C85G A113U	-3.57
A20C C96U A142C	-1.62
A20U A73G C85A C93A G141C	≤ -4.2
A20U A23U G42A G67A C93U	≤ -4.2
A19U C27U A47U G50U C79G C93G G141A U145G	≤ -4.2
A20C U55A G71A C96U	-3.43
A20U A29G C43U C75U U77G G94C U109G A113U	≤ -4.2
A20C A40C U56G C96G A121U	-1.15
A20G C32U G84U C93G	-4.2
A20G A26C A49C G68C C72G G81U C85A C93G G126C	≤ -4.2
A20C C38G G70A C87U C108U	≤ -4.2
A19U G34A C38U G59C C95A C116A	-4.19
A20C G68C G83C A89U U102A G140U	≤ -4.2
A19U U31A A41G C87G G124U	-4.17

Variant	polymerase ribozyme fitness (log ratio)
A19U G25U C38G A52C C75U C118G C131A A142U	≤ -4.2
A20C C36U G86A A89G C93A G94U G140A G143C	≤ -4.2
A20G C38U G88C C96A	≤ -4.2
A20C G48U G100C C116A	≤ -4.2
A20G U82A C96G	0.0125
A19U C35U G86A A119G G141A	-3.69
A19U C57G A121G A150G	-1.93
A20U A30C G70A	≤ -4.2
A20C U53C G59A G136C	-3.81
A20C G136C	-4.19
A19U U104A	-0.0348
A19U U55A C76G C93A	≤ -4.2
A19U A41C G50C C96U C99U U101G	≤ -4.2
A20G C54U A107U A120G	-3.56
A20G G140U	-3.41
A20C C38U C95U A122C U134C	-1.35
A20C	-0.413
A20U	-1.18
A20G	-0.287
A20U A23C C72U G88C A91G C99U G140U	≤ -4.2
A19U A91G	-2.85

Variant	polymerase ribozyme fitness (log ratio)
A19U A91U	≤ -4.2
A19U G58U C87U A119U	-2.02
A19U U55G G88U U104G	≤ -4.2
A19U A30U C36G A97U	≤ -4.2
A20G A91G	-2.54
A20U A47C U55A U56G C72U C87A G88C A115G	≤ -4.2
A19U C69A A98U G140C	≤ -4.2
A20G G81C C93U C103A G152A	-3.74
A19U A30U C72G C96U A106G A122C G140U	≤ -4.2
A19U A39U U56A	-2.83
A20U A26U A40C U44A C105G C114U C116A	≤ -4.2
A19U A30U U90G A91C C118G	≤ -4.2
A20G A24G A39G A40C C76A G136U G141A	≤ -4.2
A19U G59A G88U A89G G94U A113G	≤ -4.2
A19U G83A U90A G94U	≤ -4.2
A19U U55C C57A A66C C85G U109G	≤ -4.2
A20G A91U G124U	≤ -4.2
A20U A24U G83C C93G G143A	≤ -4.2
A20G A41C C54G G83U C87G A98C C116G C132U	≤ -4.2
A20C A40C C103U U145C	-0.185
A20G G126A G136A	0.15
